Measured values: PMC6211538

Tests used:
[1] = target: AMPA receptor GluA2 from rat with deletion of the disordered intracellular C-terminal domain (GluA2cryst) (rat) (UniProt P19491); assay: small-angle neutron scattering (SANS), molecular weight by Fischer analysis; with 10 mM AMPA, pH 5.5; 0.17 mg/ml (0.46 uM) GluA2 in D2O-based buffer with 0.5 mM matched-out deuterated DDM; 10°C; oligomeric state from MW against the construct's 368 kDa
[2] = target: AMPA receptor GluA2 from rat with deletion of the disordered intracellular C-terminal domain (GluA2cryst) (rat) (UniProt P19491); assay: small-angle neutron scattering (SANS), molecular weight by Fischer analysis; with 1 mM GYKI-53655; 0.31 mg/ml (0.84 uM) GluA2 in D2O-based buffer with 0.5 mM matched-out deuterated DDM; 10°C; oligomeric state from MW against the construct's 368 kDa
[3] = target: AMPA receptor GluA2 from rat with deletion of the disordered intracellular C-terminal domain (GluA2cryst) (rat) (UniProt P19491); assay: small-angle neutron scattering (SANS), molecular weight by Fischer analysis; resting state (apo); 0.20 mg/ml (0.54 uM) GluA2 in D2O-based buffer, 20 mM Tris-DCl pH 7.5, 100 mM NaCl, 0.5 mM matched-out deuterated DDM; 10°C; oligomeric state from MW against the construct's 368 kDa
[4] = target: AMPA receptor GluA2 from rat with deletion of the disordered intracellular C-terminal domain (GluA2cryst) (rat) (UniProt P19491); assay: small-angle neutron scattering (SANS), molecular weight by Fischer analysis; with 1 mM AMPA, pH 7.5; 0.31 mg/ml (0.84 uM) GluA2 in D2O-based buffer with 0.5 mM matched-out deuterated DDM; 10°C; oligomeric state from MW against the construct's 368 kDa

Measured: stoichiometry N

AMPA receptor GluA2 from rat with deletion of the disordered intracellular C-terminal domain (GluA2cryst) (from UniProt P19491 22-883)
4: [1] | [2] | [3] | [4]
